In patent publication US20250340608A1 (PROTAGONIST THERAPEUTICS, published 2025):
Numbered stars: 1 amine (or outer) side, 2 acyl side, 3 side chain; on linkers, the order of the positions; unused ones are H or OH. Bridge positions count the residues as written; N and C are the ends. Square brackets hold non-standard residues; d marks the D form. Side chains are listed from the residue outwards. Ends that are not written are not given here. * marks the point of attachment. Ida = iminodiacetic acid, O=C(CN(CC(=O)[*:3])[*:1])[*:2]; γGlu = O=C(O)[C@H](CCC(=O)[*:2])N[*:1]; Palmitoyl = CCCCCCCCCCCCCCCC(=O)*; Myristoyl = CCCCCCCCCCCCCC(=O)*; β3hP = O=C(O)C[C@@H]1CCCN1; Isovaleryl = CC(C)CC(=O)*; Octanoyl = CCCCCCCC(=O)*; Albu = not defined here

T1: human ferroportin (SLC40A1) fused in frame with GFP, stably expressed in HEK293 cells (human, UniProt Q9NP59 1-571)
T1 sequence (looked up): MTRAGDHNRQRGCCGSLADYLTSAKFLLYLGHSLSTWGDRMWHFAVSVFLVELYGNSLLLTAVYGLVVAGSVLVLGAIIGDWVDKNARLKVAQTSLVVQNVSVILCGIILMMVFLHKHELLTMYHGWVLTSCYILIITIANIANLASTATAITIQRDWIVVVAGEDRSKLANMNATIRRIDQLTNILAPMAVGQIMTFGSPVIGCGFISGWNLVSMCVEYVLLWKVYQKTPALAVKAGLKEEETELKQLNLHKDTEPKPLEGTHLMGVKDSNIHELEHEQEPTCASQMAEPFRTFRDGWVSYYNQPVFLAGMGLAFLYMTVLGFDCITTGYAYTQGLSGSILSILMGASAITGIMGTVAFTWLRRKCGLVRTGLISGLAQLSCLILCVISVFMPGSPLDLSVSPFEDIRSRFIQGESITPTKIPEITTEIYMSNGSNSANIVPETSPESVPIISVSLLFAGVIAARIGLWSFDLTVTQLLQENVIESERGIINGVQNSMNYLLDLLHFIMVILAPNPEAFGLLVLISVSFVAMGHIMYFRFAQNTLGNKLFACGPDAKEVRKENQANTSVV

B1: Compound 241 (peptide)
peptide: DTHFPCIKFKPRSKGWECK
modifications: not fully specified; N-terminal isovaleric acid; K10(isoGlu-Palm); C-terminal NH2
B2: Compound 291 (peptide)
peptide: Isovaleryl-DTHFPCIKF-NH2
SMILES: CC[C@H](C)[C@H](NC(=O)[C@H](CS)NC(=O)[C@@H]1CCCN1C(=O)[C@H](Cc1ccccc1)NC(=O)[C@H](Cc1c[nH]cn1)NC(=O)[C@@H](NC(=O)[C@H](CC(=O)O)NC(=O)CC(C)C)[C@@H](C)O)C(=O)N[C@@H](CCCCN)C(=O)N[C@@H](Cc1ccccc1)C(N)=O
B3: Compound 358 (peptide)
peptide: DTHFPCIKFKPHSKECK
modifications: not fully specified; N-terminal isovaleric acid; K10(isoglu-Palm); C-terminal NH2
B4: Compound 288 (peptide)
peptide: Isovaleryl-DTHFPCIIF-NH2
SMILES: CC[C@H](C)[C@H](NC(=O)[C@H](CS)NC(=O)[C@@H]1CCCN1C(=O)[C@H](Cc1ccccc1)NC(=O)[C@H](Cc1c[nH]cn1)NC(=O)[C@@H](NC(=O)[C@H](CC(=O)O)NC(=O)CC(C)C)[C@@H](C)O)C(=O)N[C@H](C(=O)N[C@@H](Cc1ccccc1)C(N)=O)[C@@H](C)CC

biological target: T1, human ferroportin (SLC40A1) fused in …; experiment: cell-based or functional assay

Binder | Potency EC50 [nM] | Potency EC50 (nM) | Potency: % (activity) at 1 µM [%]
B1 | 6 | – | –
Isovaleryl-DTHFPCIKFEPK([γGlu-Palmitoyl])SKGWECK-NH2 (not fully specified (bridges); cysteine pairing not given here) [Compound 242] | 8 | – | –
DTHFPCIKFKPRSKGWVC (N-terminal isovaleric acid; K10(mysteric acid); C-terminal NH2) [Compound 247] | 7 | – | –
DTHFPCIKFKPRSKGWVC (N-terminal isovaleric acid; K10(lauric acid); C-terminal NH2) [Compound 248] | 10 | – | –
DTHFPCIKFKPRSKGWVC (N-terminal isovaleric acid; K10(octanoic acid); C-terminal NH2) [Compound 250] | 30 | – | –
[Ida]THFPCIKFEPRSKGWVCK(Myristoyl)-NH2 (disulfide 6-18 (inferred)) [Compound 254] | 20 | – | –
Isovaleryl-HFPCIKFEPRSKGWVCK(Octanoyl)-NH2 (disulfide 4-16 (inferred)) [Compound 261] | > 300 | – | –
Isovaleryl-DTHFPCIKFEPHSK(Albu)GCK-NH2 (disulfide 6-16 (inferred); reading uncertain) [Compound 265] | 6 | – | –
Isovaleryl-DTAFPCIKFEPRSKEC-NH2 (disulfide 6-16 (inferred)) [Compound 267] | – | > 1000 | –
H-DTHFPCIIA-NH2 [Compound 278] | – | > 1000 | –
H-DTHFPCAIF-NH2 [Compound 279] | – | > 1000 | –
H-DTHFACIIF-NH2 [Compound 280] | – | > 1000 | –
H-DTAFPCIIF-NH2 [Compound 283] | 739 | – | –
H-ATHFPCIIF-NH2 [Compound 284] | – | > 1000 | –
[Ida]THF[β3hP]CIIF-NH2 [Compound 285] | – | > 1000 | –
H-DTHFPCIEF-NH2 [Compound 287] | – | > 1000 | –
B2 | 7 | – | –
H-DTHFPCIF-NH2 [Compound 293] | – | – | 52
H-DTHFPCIKFF-NH2 [Compound 297] | – | – | 64
H-LTHFPCIIF-NH2 [Compound 299] | – | – | 64
H-ETHFPCIIF-NH2 [Compound 300] | – | – | 77
H-DTKFPCIIF-NH2 [Compound 302] | – | – | 60
H-DTHFPCIIK-NH2 [Compound 304] | – | – | 55
H-DTHFPCIIR-NH2 [Compound 305] | – | – | 62
H-DTHFPCIVF-NH2 [Compound 307] | – | – | 75
H-DTHFPCILF-NH2 [Compound 308] | – | – | 89
H-DTHFPCILK-NH2 [Compound 309] | – | – | 55
H-DTHFPCIEK-NH2 [Compound 310] | – | – | 0
Isovaleryl-DTHFPCIKKEPHSKECK-NH2 (not fully specified (bridges); cysteine pairing not given here) [Compound 357] | – | > 1000 | –
B3 | 6 | – | –

biological target: T1, human ferroportin (SLC40A1) fused in …; experiment: cell-based or functional assay; remark: another data set of the same source

Binder | In Vitro Activity EC50 [nM]
Isovaleryl-DTHFPCIIFEPRSKGWVCK-NH2 (not fully specified (bridges); cysteine pairing not given here) [Compound 105] | 10
Isovaleryl-DTHFPCIKFGPRSKGWVCK-NH2 (not fully specified (bridges); cysteine pairing not given here) [Compound 9] | 32
Isovaleryl-DTHFPCIQFGPRSKGWVCK-NH2 (not fully specified (bridges); cysteine pairing not given here) [Compound 10] | 35
Isovaleryl-DTHFPCIIFGPRSKGCK-NH2 (not fully specified (bridges); cysteine pairing not given here) [Compound 115] | 21
DTHFPCIKFKPRSKGWVCK (not fully specified; N-terminal isovaleric acid; K10(PEG8); C-terminal NH2) [Compound 150] | 7

biological target: T1, human ferroportin (SLC40A1) fused in …; experiment: cell-based or functional assay; remark: another data set of the same source

Binder | % Activity At 1 uM [%] | EC50 (nM) (n = 3)
B2 | 100 | 7
H-DTHFPCIF-NH2 [Compound 293] | – | > 1000
H-DTHFPCIKFF-NH2 [Compound 297] | – | > 300
H-DTKFPCIIF-NH2 [Compound 302] | – | > 1000
H-DTHFPCIIK-NH2 [Compound 304] | – | > 1000
H-DTHFPCIIR-NH2 [Compound 305] | – | > 1000
H-DTHFPCILK-NH2 [Compound 309] | – | > 300
H-DTHFPCIEK-NH2 [Compound 310] | 0 | > 1000
B4 | 100 | –
H-DTHFPCIF-NH2 (also: homodimer via disulfide between Cys6 of each monomer) [Compound 312] | – | > 300
H-DTHFPCIKFF-NH2 (also: homodimer via disulfide between Cys6 of each monomer) [Compound 314] | – | 130
H-DTKFPCIIF-NH2 (also: homodimer via disulfide between Cys6 of each monomer) [Compound 317] | – | 137
H-DTHFPCIIK-NH2 (also: homodimer via disulfide between Cys6 of each monomer) [Compound 318] | – | > 300
H-DTHFPCIIR-NH2 (also: homodimer via disulfide between Cys6 of each monomer) [Compound 319] | – | 268
H-DTHFPCILK-NH2 (also: homodimer via disulfide between Cys6 of each monomer) [Compound 322] | – | > 300
H-DTHFPCIEK-NH2 (also: homodimer via disulfide between Cys6 of each monomer) [Compound 323] | 0 | > 1000
Isovaleryl-DTHFPCIIF-NH2 (also: homodimer via disulfide between Cys6 of each monomer) [Compound 325] | 100 | –
